We go through three molecules from PMC7617797, “The phosphorylated trimeric SOSS1 complex and RNA polymerase II trigger liquid-liquid phase separation at double-strand breaks”.

Series [1] addresses T1, hSSB1;INTS3;c9orf80 (Homo sapiens;Homo sapiens?;Homo sapiens?, UniProt Q9BQ15;Q68E01;Q9NRY2 1-211;1-1043;1-104, ||). Description: EMSA; EMSA: 25 mM Tris-HCl pH 7.5, 1 mM DTT, 5 mM MgCl2, 100 mM NaCl, 20 min at 37 C; 10 nM substrate; protein 22-167 nM (RPA 5-40 nM); 7.5% native PAGE, 0.5x TBE, 4. Particulars: protein: recombinant;recombinant;recombinant; tags: His6 (2BT);His6-TEV (438B);His6-TEV (438B); copies: 1;1;1; label: 5' Cy3; single strand. A general note: In EMSA bound probe runs differently from free probe, usually more slowly.

The target of the next series is hSSB1 Y115A (Homo sapiens, UniProt Q9BQ15 1-211, Y115A). Described as above. Particulars: protein: recombinant.
Sequence of hSSB1 Y115A (Q9BQ15 whole entry Y115A): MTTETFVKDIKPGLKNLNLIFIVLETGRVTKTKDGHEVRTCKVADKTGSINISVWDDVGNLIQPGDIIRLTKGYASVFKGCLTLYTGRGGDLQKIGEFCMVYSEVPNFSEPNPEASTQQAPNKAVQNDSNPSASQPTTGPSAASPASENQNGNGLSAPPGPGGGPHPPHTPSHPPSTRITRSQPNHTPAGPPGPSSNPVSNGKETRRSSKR
The target of another series is hSSB1 Y102A (Homo sapiens, UniProt Q9BQ15 1-211, Y102A). Described as above. Particulars: protein: recombinant.
Sequence of hSSB1 Y102A (Q9BQ15 whole entry Y102A): as the sequence (Q9BQ15 whole entry Y115A) above, with Y102A, A115Y counted along it
The next series addresses hSSB1 Y102A/Y115A (Homo sapiens, UniProt Q9BQ15 1-211, Y102A;Y115A). The series is described as above. Conditions: protein: recombinant.
For series [2], the target named is T1, hSSB1;INTS3;c9orf80. Description: competition EMSA; substrate pre-coated with RPA (10 or 30 nM); EMSA: 25 mM Tris-HCl pH 7.5, 1 mM DTT, 5 mM MgCl2, 100 mM NaCl, 20 min at 37 C; 10 nM substrate; protein 22-167 nM (RPA 5-40 nM); 7.5% native PAGE, 0.5x TBE, 4. Particulars: protein: recombinant;recombinant;recombinant; tags: His6 (2BT);His6-TEV (438B);His6-TEV (438B); copies: 1;1;1; label: 5' Cy3 on strand 1; 21-nt RNA paired to strand 1 in a 21-nt bubble; 20-bp flanking duplexes.

Where [3] appears, read: label: 5' Cy3 on strand 1, 21-nt RNA paired to strand 1 in a 21-nt bubble, 20-bp flanking duplexes.

Sequence of hSSB1 Y102A/Y115A (Q9BQ15 whole entry Y102A/Y115A): as the sequence (Q9BQ15 whole entry Y115A) above, with Y102A counted along it
T1 sequence (Q9BQ15 whole entry, chain 1 of 3): as the sequence (Q9BQ15 whole entry Y115A) above, with A115Y counted along it
T1 sequence (Q68E01 whole entry, chain 2 of 3): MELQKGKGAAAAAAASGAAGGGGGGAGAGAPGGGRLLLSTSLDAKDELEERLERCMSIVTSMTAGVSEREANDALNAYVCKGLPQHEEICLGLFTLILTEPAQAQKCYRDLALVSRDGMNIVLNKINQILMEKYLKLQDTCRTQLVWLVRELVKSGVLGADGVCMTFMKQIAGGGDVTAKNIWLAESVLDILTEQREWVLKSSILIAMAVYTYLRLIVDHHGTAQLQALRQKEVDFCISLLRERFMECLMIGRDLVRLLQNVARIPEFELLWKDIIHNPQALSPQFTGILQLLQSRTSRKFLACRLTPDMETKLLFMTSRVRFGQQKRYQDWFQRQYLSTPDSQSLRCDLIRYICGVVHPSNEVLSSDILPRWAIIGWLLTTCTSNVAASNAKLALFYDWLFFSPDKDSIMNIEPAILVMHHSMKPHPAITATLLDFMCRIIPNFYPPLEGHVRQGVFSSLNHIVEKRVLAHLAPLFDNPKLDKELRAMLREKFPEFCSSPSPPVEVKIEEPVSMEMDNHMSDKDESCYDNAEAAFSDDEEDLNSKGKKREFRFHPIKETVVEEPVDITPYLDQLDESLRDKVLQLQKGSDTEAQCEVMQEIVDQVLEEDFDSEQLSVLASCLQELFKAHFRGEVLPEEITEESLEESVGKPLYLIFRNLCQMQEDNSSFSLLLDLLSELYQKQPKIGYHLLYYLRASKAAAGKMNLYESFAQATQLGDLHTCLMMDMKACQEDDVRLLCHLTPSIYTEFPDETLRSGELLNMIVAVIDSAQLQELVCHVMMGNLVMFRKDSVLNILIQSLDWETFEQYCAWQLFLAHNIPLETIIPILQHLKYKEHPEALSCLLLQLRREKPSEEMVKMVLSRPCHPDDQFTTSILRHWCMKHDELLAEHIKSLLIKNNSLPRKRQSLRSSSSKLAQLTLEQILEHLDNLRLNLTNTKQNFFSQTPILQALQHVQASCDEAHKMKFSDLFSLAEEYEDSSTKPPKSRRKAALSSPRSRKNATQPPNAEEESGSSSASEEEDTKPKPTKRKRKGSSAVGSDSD
T1 sequence (Q9NRY2 whole entry, chain 3 of 3): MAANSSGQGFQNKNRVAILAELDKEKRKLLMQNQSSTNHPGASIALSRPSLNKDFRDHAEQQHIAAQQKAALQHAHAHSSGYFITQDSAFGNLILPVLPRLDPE

For the molecule GTGCCTTGCTAGGACATCTTT (ssDNA) [21-mer ssDNA (pRMS630)], in the series with hSSB1;INTS3;c9orf80 [1], the binding result is “no binding”.

B1: 61-mer ssDNA (ssDNA)
DNA: GACGCTGCCGAATTCTACCAGTGCCTTGCTAGGACATCTTTGCCCACCTGCAGGTTCACCC
For B1, the binding result is recorded as “binds” with hSSB1 Y115A (label: 5' Cy3, single strand); “binds” with hSSB1 Y102A (label: 5' Cy3, single strand); “binds” in the series with hSSB1 Y102A/Y115A (label: 5' Cy3, single strand).

B2: R-loop (mixed)
DNA 1: B1 DNA
DNA 2: GGGTGAACCTGCAGGTGGGCGGCTGCTCATCGTAGGTTAGTTGGTAGAATTCGGCAGCGTC
RNA: AAAGAUGUCCUAGCAAGGCAC
Regarding B2, the binding result with hSSB1 Y115A (setting [3]), in the series with hSSB1 Y102A (setting [3]), with hSSB1 Y102A/Y115A (setting [3]) and with hSSB1;INTS3;c9orf80 [2] was “binds” each time.
